Test results from US12129308 (Merck KGaA, dated 2024).
Where two headings read alike, the source gives them in different places.

Legend:
[1] = molecular target: T1, activated human MMP13 (human, UniProt P45452 104-471); assay: cell-based or functional assay
[2] = molecular target: T2, activated rat MMP13 (rat, UniProt P23097 99-466); assay: cell-based or functional assay
[3] = molecular target: T3, activated MMP13 (species not stated) (Homo sapiens (Human), UniProt P45452 104-471, Biotinylated in the TIMP-2 competition ELISA (sites not given). Activated form: pro-peptide removed.); assay: TIMP-2 competition ELISA; Nanobody pre-incubated with 1.26 nM activated MMP13-biotin, binding to captured TIMP-2
T3 construct: campaign 4 ELISA; Probably human

[4] = molecular target: T1, activated human MMP13; assay: cell-based or functional assay; remark: listed apart in the source
[5] = molecular target: bovine MMP13 (bovine, UniProt O77656 104-471); assay: cell-based or functional assay
[6] = molecular target: T2, activated rat MMP13; assay: cell-based or functional assay; remark: listed apart in the source
[7] = molecular target: cynomolgus MMP13 (cynomolgus, UniProt A0A2K5U988 104-471); assay: cell-based or functional assay
[8] = molecular target: activated dog MMP13 (dog, UniProt P45452 104-471 (human entry)); assay: cell-based or functional assay

B1: 62C02-40E09 clone 72 (bispecific antibody)
chain: EVQLVESGGALVRPGGSLRLSCAASGFAFSAAYMSWVRQAPGRGLEWVSSISDDGSKTYYADSVKGRFTISRDNAKNTVYLQMNNLKPDDTAVYYCNTGYGATTTRPGRYWGQGTLVTVSSGGGGSGGGGSGGGGSGGGGSGGGGSGGGGSGGGGSEVQLVESGGGSVQAGGSLRLSCAASGSTFSRYSMNWYRQAPGKQREFVAGISVGRITNYAVSVRGRFTISRDNAEGTGYLQMNSLKPEDTAVYYCNAGGLQGYWGLGTLVTVSS
- IC50, human fluorogenic collagen assay [1]: 2.4 nM
- IC50, (adapted) rat fluorogenic peptide assay [2]: 0.1 nM

B2: C0101PMP059F06 (VHH)
VHH: EVQLVESEGGTVEPGESLRLACAAPGPGIRTNFMAWYRQAPEKEREMVASISRDGSTHYADSVKGRFTISSDNATSTFYLQMNSLQVEDTAVYYCATDPHILHNDRAGAFLVEDYDHWGQGTQVTVSS
notes: Profile 2 Nanobody
- IC50 [3]: 51.8 nM
- IC50, human fluorogenic collagen assay [4]: 140 nM
- IC50, human fluorogenic peptide assay [4]: 56.3 nM
- IC50, bovine fluorogenic peptide assay [5]: 108 nM
- IC50, rat fluorogenic peptide assay [6]: 38.9 nM
- IC50, cyno fluorogenic peptide assay [7]: 48.5 nM
- IC50, dog fluorogenic peptide assay [8]: 82.6 nM

B3: C0101PMP063F01 (VHH)
VHH: EVQLVESGGGLVQPGGSLRLSCSASTGIFRINTMGWHRQAPGKQRDLVATFTSDDNTKYADSVKGRFTISRDNAENTVYLQMNDLKPEDTAVYYCHATTVMYDSNSPDYWGQGTQVTVSS
notes: Profile 2 Nanobody
- IC50 [3]: 177 nM
- IC50, human fluorogenic collagen assay [4]: 134 nM
- IC50, human fluorogenic peptide assay [4]: 82.4 nM
- IC50, bovine fluorogenic peptide assay [5]: 191 nM
- IC50, rat fluorogenic peptide assay [6]: 20.2 nM
- IC50, cyno fluorogenic peptide assay [7]: 108 nM
- IC50, dog fluorogenic peptide assay [8]: 73.9 nM

B4: C0101PMP529G11 (VHH)
VHH: DVQLVESGGGLVQPGGSLRLSCAASGSIFRINAMGWYRQAPGKQRELVAAIISGGTTYYADSVKGRFTISRDNSKNTVYLQMNSLRPEDTAVYYCYADIGWPYVLDYDFWGQGTLVTVSS
notes: Profile 2 Nanobody
- IC50 [3]: 7.9 nM
- IC50, human fluorogenic collagen assay [4]: 17.9 nM
- IC50, human fluorogenic peptide assay [4]: 10.3 nM
- IC50, bovine fluorogenic peptide assay [5]: 20.1 nM
- IC50, rat fluorogenic peptide assay [6]: 80.6 nM
- IC50, cyno fluorogenic peptide assay [7]: 7.1 nM
- IC50, dog fluorogenic peptide assay [8]: 39.1 nM

B5: C0101PMP519E04 (VHH)
VHH: DVQLVESGGGLVQPGGSLRLSCVASGPTFSDYAMGWFRQAPGKEREFVAAISWSGGSTYYADSVKGRFTISRDNSKNTVYLQMNSLRPEDTAVYYCTAARGGGYRASGGPLSEYNYWGQGTLVTVSS
notes: Profile 2 Nanobody
- IC50 [3]: 5.5 nM
- IC50, human fluorogenic collagen assay [4]: 24.8 nM
- IC50, human fluorogenic peptide assay [4]: 9.5 nM
- IC50, bovine fluorogenic peptide assay [5]: 17.1 nM
- IC50, rat fluorogenic peptide assay [6]: 3 nM
- IC50, cyno fluorogenic peptide assay [7]: 7.2 nM
- IC50, dog fluorogenic peptide assay [8]: 7 nM

B6: C0101PMP513C04 (VHH)
VHH: DVQLVESGGGLVQPGGSLRLSCAASGRTFSRYVMGWFRQAPGKEREFVAAINWSSGSTYYADSVKGRFTISRDNSKNTVYLQMNSLRPEDTAVYYCAADRRVYYDTYPNLRGYDYWGQGTLVTVSS
- IC50, human fluorogenic collagen assay [4]: 18.1 nM
- IC50, human fluorogenic peptide assay [4]: 7.7 nM
- IC50, bovine fluorogenic peptide assay [5]: 48.7 nM
- IC50, rat fluorogenic peptide assay [6]: 16.2 nM
- IC50, cyno fluorogenic peptide assay [7]: 8 nM
- IC50, dog fluorogenic peptide assay [8]: 35.2 nM

B7: C0101PMP529C12 (VHH)
VHH: DVQLVESGGGLVQPGGSLRLSCVASGSIFSINAMGWYRQAPGKQRELVAAISSGGSTYYADSVKGRFTISRDNSKNTVYLQMNSLRPEDTAVYYCNAAVDASRGLPYELYYYWGQGTLVTVSS
notes: Profile 2 Nanobody; also called C0101529C12
- IC50 [3]: 0.4 nM
- IC50, human fluorogenic collagen assay [4]: 4.9 nM
- IC50, human fluorogenic peptide assay [4]: 1.2 nM
- IC50, bovine fluorogenic peptide assay [5]: 1.2 nM
- IC50, rat fluorogenic peptide assay [6]: 0.2 nM
- IC50, cyno fluorogenic peptide assay [7]: 0.7 nM
- IC50, dog fluorogenic peptide assay [8]: 0.2 nM

B8: 516G08-40E09 clone 76 (bispecific antibody)
chain: EVQLVESGGGLVQPGGSLRLSCAGSGSIFRINVMAWYRQAPGKQRELVAAITSGGTTNYADSVKGRFTISRDNSKNTVYLQMNSLRPEDTAVYYCYADIGWPYVLDYDFWGQGTLVTVSSGGGGSGGGGSGGGGSGGGGSGGGGSGGGGSGGGGSEVQLVESGGGSVQAGGSLRLSCAASGSTFSRYSMNWYRQAPGKQREFVAGISVGRITNYAVSVRGRFTISRDNAEGTGYLQMNSLKPEDTAVYYCNAGGLQGYWGLGTLVTVSS
- IC50, human fluorogenic collagen assay [1]: 3.55 nM
- IC50, (adapted) rat fluorogenic peptide assay [2]: 0.16 nM

B9: C0101PMP521F02 (VHH)
VHH: DVQLVESGGGLVQPGGSLRLSCVASGLTFSSYAMGWFRQAPGKEREFVAAISWSGGRTYYADSVKGRFTISRDNSKNTVYLQMNSLRPEDTAVYYCTAARGPGSVGPSEEYNYWGQGTLVTVSS
notes: Profile 2 Nanobody
- IC50 [3]: 8.5 nM
- IC50, human fluorogenic collagen assay [4]: 20.7 nM
- IC50, human fluorogenic peptide assay [4]: 7.2 nM
- IC50, bovine fluorogenic peptide assay [5]: 16.1 nM
- IC50, rat fluorogenic peptide assay [6]: 2.1 nM
- IC50, cyno fluorogenic peptide assay [7]: 7 nM
- IC50, dog fluorogenic peptide assay [8]: 5.5 nM

B10: C0101PMP525C04 (VHH)
VHH: DVQLVESGGGLVQPGGSLRLSCAGSGSIFSGNAMGWYRQAPGKQRELVAAITSGGVTNYADSVKGRFTISRDNSKNTVYLQMNSLRPEDTAVYYCAADIRYPTGLVGDYWGQGTLVTVSS
notes: Profile 2 Nanobody
- IC50 [3]: 36.2 nM
- IC50, human fluorogenic collagen assay [4]: 90.5 nM
- IC50, human fluorogenic peptide assay [4]: 58 nM
- IC50, bovine fluorogenic peptide assay [5]: 108 nM
- IC50, rat fluorogenic peptide assay [6]: 157 nM
- IC50, cyno fluorogenic peptide assay [7]: 32.5 nM
- IC50, dog fluorogenic peptide assay [8]: 90.8 nM

B11: 40E09-62C02 clone 69 (bispecific antibody)
chain: EVQLVESGGGSVQAGGSLRLSCAASGSTFSRYSMNWYRQAPGKQREFVAGISVGRITNYAVSVRGRFTISRDNAEGTGYLQMNSLKPEDTAVYYCNAGGLQGYWGLGTLVTVSSGGGGSGGGGSGGGGSGGGGSGGGGSGGGGSGGGGSEVQLVESGGALVRPGGSLRLSCAASGFAFSAAYMSWVRQAPGRGLEWVSSISDDGSKTYYADSVKGRFTISRDNAKNTVYLQMNNLKPDDTAVYYCNTGYGATTTRPGRYWGQGTLVTVSS
- IC50, (adapted) rat fluorogenic peptide assay [2]: 1.12 nM

B12: C0101PMP080A01 (VHH)
VHH: EVQLVESGGGLVQPGGSLRLSCAASGFTLAYYSIGWFRQAPGKEREGVSCISSGIDGSTYYADSVKGRFTISRDNAKNTMYLQMNNLKPEDTGVYYCAADPSHYYSEYDCGYYGMDYWGKGTLVTVSS
- IC50, human fluorogenic collagen assay [4]: 10.8 nM
- IC50, human fluorogenic peptide assay [4]: 5.2 nM
- IC50, bovine fluorogenic peptide assay [5]: 6.4 nM
- IC50, rat fluorogenic peptide assay [6]: 4.2 nM
- IC50, cyno fluorogenic peptide assay [7]: 2.9 nM
- IC50, dog fluorogenic peptide assay [8]: 6 nM

B13: C0101PMP520C04 (VHH)
VHH: DVQLVESGGGLVQPGGSLRLSCAASGRTFSSYAMGWFRQAPGKEREFVAAISWSGGSTYYSDSVKGRFTISRDNSKNTVYLQMNSLRPEDTAVYYCTAARGGVAGTDGPLGDYNYWGQGTLVTVSS
notes: Profile 2 Nanobody
- IC50 [3]: 8 nM
- IC50, human fluorogenic collagen assay [4]: 31.5 nM
- IC50, human fluorogenic peptide assay [4]: 13.7 nM
- IC50, bovine fluorogenic peptide assay [5]: 27.9 nM
- IC50, rat fluorogenic peptide assay [6]: 5.6 nM
- IC50, cyno fluorogenic peptide assay [7]: 32.5 nM
- IC50, dog fluorogenic peptide assay [8]: 10.5 nM

B14: C0101PMP520B06 (VHH)
VHH: DVQLVESGGGLVQPGGSLRLSCAASGRTFSSYAMGWFRQAPGKEREFVAAISWGGGSTYYSDSVKGRFTISRDNSKNTVYLQMNSLRPEDTAVYYCTAALGSTGSGSTPVPEYRYWGQGTLVTVSS
notes: Profile 2 Nanobody
- IC50 [3]: 9.3 nM
- IC50, human fluorogenic collagen assay [4]: 27.5 nM
- IC50, human fluorogenic peptide assay [4]: 13.4 nM
- IC50, bovine fluorogenic peptide assay [5]: 27.7 nM
- IC50, rat fluorogenic peptide assay [6]: 7.8 nM
- IC50, cyno fluorogenic peptide assay [7]: 9.5 nM
- IC50, dog fluorogenic peptide assay [8]: 17.3 nM

B15: 517A01-40E09 clone 80 (bispecific antibody)
chain: EVQLVESGGGLVQPGGSLRLSCAASGRTFSSYAMGWFRQAPGKEREFVAAISWSGGSTYYADSVKGRFTISRDNSKNTVYLQMNSLRPEDTAVYYCTAALAVYGPNRYRYGPVGEYNYWGQGTLVTVSSGGGGSGGGGSGGGGSGGGGSGGGGSGGGGSGGGGSEVQLVESGGGSVQAGGSLRLSCAASGSTFSRYSMNWYRQAPGKQREFVAGISVGRITNYAVSVRGRFTISRDNAEGTGYLQMNSLKPEDTAVYYCNAGGLQGYWGLGTLVTVSS
- IC50, human fluorogenic collagen assay [1]: 4.06 nM
- IC50, (adapted) rat fluorogenic peptide assay [2]: 0.13 nM
